Paper PMC5792442, “A comparative Study of Aptasensor Vs Immunosensor for Label-Free PSA Cancer Detection on GQDs-AuNRs Modified Screen-Printed Electrodes”

Tests used:
[1] = target: T1, Prostate specific antigen (PSA) (UniProt P07288 25-261); experiment: electrochemical impedance spectroscopy (immobilized DNA); Rct unchanged with PSA; 0.1 M PBS pH 7.4, with or without 5 mM [Fe(CN)6]3-/4-; PSA 0-11.06 ng/mL; temperature not stated; details: protein: commercial
[2] = target: T1, Prostate specific antigen (PSA); experiment: electrochemical impedance spectroscopy, CV and DPV (immobilized aptamer); 5 mM [Fe(CN)6]3-/4-; also EIS without redox probe; LOD 0.14 ng/mL; 0.1 M PBS pH 7.4, with or without 5 mM [Fe(CN)6]3-/4-; PSA 0-11.06 ng/mL; temperature not stated; details: protein: commercial

T1 sequence (P07288 25-261): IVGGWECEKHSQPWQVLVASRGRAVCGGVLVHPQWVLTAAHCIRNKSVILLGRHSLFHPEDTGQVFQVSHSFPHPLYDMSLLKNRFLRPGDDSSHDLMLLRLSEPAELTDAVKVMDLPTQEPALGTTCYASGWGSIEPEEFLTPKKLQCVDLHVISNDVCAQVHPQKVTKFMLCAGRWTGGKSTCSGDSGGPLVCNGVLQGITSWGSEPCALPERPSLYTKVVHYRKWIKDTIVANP

| Binder | binding result [1] | binding result [2] |
| --- | --- | --- |
| TTTTGCCATCGGGGCCATGTTCAA (ssDNA) [random single strand DNA] | no binding | – |
| ATTAAAGCTCGCCATCAAATAGC (ssDNA) [PSA-Aptamer] | – | binds |
